The target of experiment [1] is T1, β2-Microglobulin (β2M) (Homo sapiens, UniProt P61769).
T1 construct: β2-microglobulin, human (the title says anti-human β2-microglobulin VHHs); Probably the mature protein without the signal peptide (surmised); also called antigen β2M; human β2-microglobulin; source: expressed and purified as previously described [27]
Briefly: SPR; Biacore T200; β2M immobilized on a CM5 chip to 150 RU; 2-fold serial diluted VHH at 30 μL/min in HBS-EP+; 25 °C; 1:1 binding model; VHH samples after incubation with NHS-Fluo at molar ratio 0 (negative control), 1, 5 or 20 and ultrafiltration. To be noted: both partners purified.

Experiment [2] deals with T2, β2-Microglobulin (Homo sapiens, UniProt P61769).
T2 construct: human β2-microglobulin; Amine-coupled to a CM5 chip (150 RU); also called antigen β2M; source: expressed and purified as previously described [27]
T2 sequence (P61769 21-119): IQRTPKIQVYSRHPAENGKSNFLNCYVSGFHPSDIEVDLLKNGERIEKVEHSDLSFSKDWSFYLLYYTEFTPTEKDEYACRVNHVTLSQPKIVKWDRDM
Description: SPR; Biacore T200; β2M immobilised on a CM5 chip to 150 RU; VHH samples after the modification procedure (NHS-Fluo:VHH 0, 1, 5 or 20; 2 h at 4 °C, ultrafiltration) in 2-fold serial dilution, 30 μL/min, HBS-EP+, 25 °C; 1:1 model with drift and RI2.

Experiment [3] deals with T2, β2-Microglobulin. Description: SPR; Biacore T200; β2M immobilised on a CM5 chip to 150 RU; VHH samples 'Origin' (no treatment) in 2-fold serial dilution, 30 μL/min, HBS-EP+, 25 °C; 1:1 model with drift and RI2. Particulars: both partners purified. On the technique in general: In SPR one partner is held on a chip, and binding of the other changes the refractive index at the surface.

Experiment [4] has as its target T2, β2-Microglobulin. Briefly: SPR; Biacore T200; β2M immobilised on a CM5 chip to 150 RU; VHH samples after the modification procedure (NHS-Fluo:VHH 0, 1, 5 or 20; 2 h at 4 °C, ultrafiltration) in 2-fold serial dilution, 30 μL/min, HBS-EP+, 25 °C; 1:1 model with drift and RI2. To be noted: both partners purified.
The target in experiment [5] is T2, β2-Microglobulin. The description is as above. Particulars: both partners purified. The source holds these as a separate data set.
Experiment [6] has as its target T2, β2-Microglobulin. Briefly: SPR; Biacore T200; β2M immobilised on a CM5 chip to 150 RU; VHH samples 'Origin' (no treatment) in 2-fold serial dilution, 30 μL/min, HBS-EP+, 25 °C; 1:1 model with drift and RI2. To be noted: both partners purified. The source holds these as a separate data set.

This is an account of results in PMC6680903 (Molecules, 2019).

T1 sequence (P61769 21-119): as above

B1: NB-3 (anti-β2M VHH, unmodified), VHH-(G4S)4-His6 (VHH)
VHH: QVQLVESGGGLVQPGGSLRLSCAASGFSLDYYAIGWFRQAPGKEREGVSCISSSDDSTYYAGSVKGRFKISRDNAKSTVYLQMNSLKPEDSAVYYCAALHSGNYYYTPSYICDAEMDYWGKGTLVTVSS
notes: VHH domain of NB-3; flexible (G4S)4 linker between the VHH domain and the 6xHis-tag, written out from the printed formula; Homology model built on template PDB 5J56 (GMQE 0.93), a template only; also called NB-3-origin; NB-3-0; source: E. coli SHuffle T7, purified (HisTrap HP)
In the case of B1, in experiment [1], the Kd – broadly, a measure of binding affinity in units of concentration – is 1260 nM and the “fold increase of KD against the sample without any treatment” value was approximately 2 fold.

B2: NB-4 modified with 1 time of NHS-Fluo (VHH)
VHH: QVQLVESGGGLVEPGGSVRLSCAVSGNIVSISTVGWYRQAPGKQRELVASITGGGTTNYGDFVNGRFSIYRDNAPNRVYLHMSTLRPDDTAVYYCNARAGGSGSGSDPYDYWGVGTQVTVSS
For the molecule B2, in experiment [2], the Kd came out at 26200 nM; the koff (in general, a measure of how fast the partners let go of each other) turned out to be 0.00315 s⁻¹; the kon – broadly, the second-order rate constant of association – was 120 M⁻¹ s⁻¹.

B3: NB-4 (anti-β2M VHH, unmodified), VHH-(G4S)4-His6 (VHH)
VHH: QVQLVESGGGLVEPGGSVRLSCAVSGNIVSISTVGWYRQAPGKQRELVASITGGGTTNYGDFVNGRFSIYRDNAPNRVYLHMSTLRPDDTAVYYCNARAGGSGSGSDPYDYWGVGTQVTVSS
notes: VHH domain of NB-4; flexible (G4S)4 linker between the VHH domain and the 6xHis-tag, written out from the printed formula; Homology model built on template PDB 5IMK (GMQE 0.85), a template only; also called NB-4-origin; NB-4-0; source: E. coli SHuffle T7, purified (HisTrap HP)
As to B3, in experiment [1], the “fold increase of KD against the sample without any treatment” value is approximately 2 fold.

B4: NB-4 (VHH)
VHH: QVQLVESGGGLVEPGGSVRLSCAVSGNIVSISTVGWYRQAPGKQRELVASITGGGTTNYGDFVNGRFSIYRDNAPNRVYLHMSTLRPDDTAVYYCNARAGGSGSGSDPYDYWGVGTQVTVSS
notes: VHH domain of NB-4; flexible (G4S)4 linker between the VHH domain and the His6 tag, written out from '(G4S)4'; VHH-(G4S)4-His6; Template of the homology model: PDB 5IMK (GMQE 0.85). 'Origin' = no treatment; '0' = negative control; also called NB-4-Origin; NB-4-0; source: E. coli SHuffle T7, purified (HisTrap HP)
In experiment [3], B4 gave a Kd of 289 nM, an off-rate constant (koff) of 0.0028 s⁻¹ and an on-rate constant (kon) of 9700 M⁻¹ s⁻¹. Besides, in experiment [4], binding was characterised by a dissociation constant (Kd) of 536 nM, the koff was found to be 0.003 s⁻¹ and the kon was determined as 5600 M⁻¹ s⁻¹.

B5: NB-2 (VHH)
VHH: QVQLVESGGGLVQHGGSLRLSCAASGSAFSTYSMTWHRQAPGKGREWVAGVDRSNSDTNYADSVKGRFTIYRDNAQNTVYLRMNSLKPEDTAVYYCSAERLDGSVRREYWGQGTQVTVSS
notes: VHH domain of NB-2; flexible (G4S)4 linker between the VHH domain and the His6 tag, written out from '(G4S)4'; VHH-(G4S)4-His6; Template of the homology model: PDB 5IML (GMQE 0.92). 'Origin' = no treatment; '0' = negative control; also called NB-2-Origin; NB-2-0; source: E. coli SHuffle T7, purified (HisTrap HP)
For B5, in experiment [5], the koff was 0.00257 s⁻¹ and the on-rate constant (kon) turned out to be 3540 M⁻¹ s⁻¹. In experiment [6], this molecule showed a Kd of 356 nM, a koff of 0.00218 s⁻¹ and a kon of 6120 M⁻¹ s⁻¹.

B6: NB-2 modified with 20 times of NHS-Fluo (VHH)
VHH: QVQLVESGGGLVQHGGSLRLSCAASGSAFSTYSMTWHRQAPGKGREWVAGVDRSNSDTNYADSVKGRFTIYRDNAQNTVYLRMNSLKPEDTAVYYCSAERLDGSVRREYWGQGTQVTVSS
notes: as the VHH domain of Dm6; flexible (G4S)4 linker between the VHH domain and the His6 tag, written out from '(G4S)4'; A mixture of isomers with different numbers and places of fluorescein; also called NB-2-20; source: E. coli SHuffle T7, purified (HisTrap HP), modified with NHS-Fluo, ultrafiltration
In experiment [5], B6 gave an off-rate constant (koff) of 0.00328 s⁻¹ and an on-rate (kon) of 77.4 M⁻¹ s⁻¹.

B7: NB-2 (anti-β2M VHH, unmodified), VHH-(G4S)4-His6 (VHH)
VHH: QVQLVESGGGLVQHGGSLRLSCAASGSAFSTYSMTWHRQAPGKGREWVAGVDRSNSDTNYADSVKGRFTIYRDNAQNTVYLRMNSLKPEDTAVYYCSAERLDGSVRREYWGQGTQVTVSS
notes: VHH domain of NB-2; flexible (G4S)4 linker between the VHH domain and the 6xHis-tag, written out from the printed formula; Homology model built on template PDB 5IML (GMQE 0.92), a template only; also called NB-2-origin; NB-2-0; source: E. coli SHuffle T7, purified (HisTrap HP)
Take B7: in experiment [1], the equilibrium dissociation constant (Kd) was found to be 726 nM and the “fold increase of KD against the sample without any treatment” value was approximately 2 fold.

B8: NB-2 modified with 5 times of NHS-Fluo (VHH)
VHH: QVQLVESGGGLVQHGGSLRLSCAASGSAFSTYSMTWHRQAPGKGREWVAGVDRSNSDTNYADSVKGRFTIYRDNAQNTVYLRMNSLKPEDTAVYYCSAERLDGSVRREYWGQGTQVTVSS
notes: as the VHH domain of Dm6; flexible (G4S)4 linker between the VHH domain and the His6 tag, written out from '(G4S)4'; A mixture of isomers with different numbers and places of fluorescein; also called NB-2-5; source: E. coli SHuffle T7, purified (HisTrap HP), modified with NHS-Fluo, ultrafiltration
In experiment [5], B8 displayed a Kd of 9370 nM, an off-rate (koff) of 0.00554 s⁻¹ and an on-rate (kon) of 591 M⁻¹ s⁻¹.

B9: NB-2 modified with 1 time of NHS-Fluo (VHH)
VHH: QVQLVESGGGLVQHGGSLRLSCAASGSAFSTYSMTWHRQAPGKGREWVAGVDRSNSDTNYADSVKGRFTIYRDNAQNTVYLRMNSLKPEDTAVYYCSAERLDGSVRREYWGQGTQVTVSS
notes: as the VHH domain of Dm6; flexible (G4S)4 linker between the VHH domain and the His6 tag, written out from '(G4S)4'; A mixture of isomers with different numbers and places of fluorescein; also called NB-2-1; source: E. coli SHuffle T7, purified (HisTrap HP), modified with NHS-Fluo, ultrafiltration
In experiment [5], B9 returned a dissociation constant (Kd) of 2530 nM, a koff of 0.00403 s⁻¹ and a kon of 1600 M⁻¹ s⁻¹.

B10: NB-2 modified by a 20 fold amount of NHS-Fluo (VHH)
VHH: QVQLVESGGGLVQHGGSLRLSCAASGSAFSTYSMTWHRQAPGKGREWVAGVDRSNSDTNYADSVKGRFTIYRDNAQNTVYLRMNSLKPEDTAVYYCSAERLDGSVRREYWGQGTQVTVSS
notes: VHH domain as in m4 (NB-2); flexible (G4S)4 linker between the VHH domain and the 6xHis-tag, written out from the printed formula; Heterogeneous product of random amino modification; also called modified NB-2; NB-2 20:1; source: E. coli SHuffle T7, purified (HisTrap HP), then modified with NHS-Fluo (2 h, 4 °C), ultrafiltration
Take B10: the dissociation constant Kd in experiment [1] is 42300 nM.
